The target of the experiment is T1, FcRn receptor (UniProt P55899 24-365).
T1 construct: also called purified FcRn
The experiment is described as follows: SPR. Particulars: both partners purified.

Our source for the Kd values is PMC9889962 (Antibody Therapeutics, 2023).

B1: LiVE-Longer YTE chimera (ACE-2 LVE/STR-YTE fusion protein) (Fc fusion)
chain: QSTIEEQAKLFLDKFNVEAEDLFYQSSLASWNYNTNITEENVQNMNNAGDKWSAFLKEQSTLAQMYPLQEIQELTVKLQLQALQQNGSSVLSEDKSKRLNTILNTMSTIYSTGKVCNPDNPQECLLLEPGLNEIMANSLDYNERLWAWESWRSEVGKQLRPLYEEYVVLKNEMARANHYEDYGDYWRGDYEVNGVDGYDYSRGQLIEDVEHTFEEIKPLYEHLHAYVRAKLMNAYPSYISPIGCLPAHLLGDMWGRFWTNLYSLTVPFGQKPNIDVTDAMVDQAWDAQRIFKEAEKFFVSVGLPNMTQGFWENSMLTDPGNVQKAVCHPTAWDLGKGDFRILMCTKVTMDDFLTAHHEMGHIQYDMAYAAQPFLLRNGANEGFHEAVGEIMSLSAATPKHLKSIGLLSPDFQEDNETEINFLLKQALTIVGTLPFTYMLEKWRWMVFKGEIPKDQWMKKWWEMKREIVGVVEPVPHDETYCDPASLFHVSNDYSFIRYYTRTLYQFQFQEALCQAAKHEGPLHKCDISNSTEAGQKLFNMLRLGKSEPWTLALENVVGAKNMNVRPLLNYFEPLFTWLKDQNKNSFVGWSTDWSPYADQSIKVRISLKSALGDKAYEWNDNEMYLFRSSVAYAMRQYFLKVKNQMILFGEEDVRVANLKPRISFNFFVTAPKNVSDIIPRTEVEKAIRMSRSRINDAFRLNDNSLEFLGIQPTLGPPNQPPVS
Consider B1, for which the dissociation constant Kd is 27 nM.

The term Kd denotes a measure of binding affinity in units of concentration.
